Laboratory results: US20170298359, “OLIGONUCLEOTIDE TARGETED TO THE A20-THREE PRIME UNTRANSLATED REGION” (Max-Delbrück-Centrum für Molekulare Medizin in …, published 2017)

What was measured:
[1] = biological target: T1, RC3H1-N2 (Roquin-1, RING, ROQ and CCCH zinc finger domains) (Homo sapiens, UniProt Q5TC82 Q5TC82:2-452); experiment: EMSA; same buffer; higher affinity than for the 23 nt hairpin; reduced by antisense LNA SEQ 6 (FIG. 5c); details: tags: N-terminal His7 cleaved with TEV protease, E. coli Rosetta 2 (DE3), pQLinkH; label: 5'-32P
T1 sequence: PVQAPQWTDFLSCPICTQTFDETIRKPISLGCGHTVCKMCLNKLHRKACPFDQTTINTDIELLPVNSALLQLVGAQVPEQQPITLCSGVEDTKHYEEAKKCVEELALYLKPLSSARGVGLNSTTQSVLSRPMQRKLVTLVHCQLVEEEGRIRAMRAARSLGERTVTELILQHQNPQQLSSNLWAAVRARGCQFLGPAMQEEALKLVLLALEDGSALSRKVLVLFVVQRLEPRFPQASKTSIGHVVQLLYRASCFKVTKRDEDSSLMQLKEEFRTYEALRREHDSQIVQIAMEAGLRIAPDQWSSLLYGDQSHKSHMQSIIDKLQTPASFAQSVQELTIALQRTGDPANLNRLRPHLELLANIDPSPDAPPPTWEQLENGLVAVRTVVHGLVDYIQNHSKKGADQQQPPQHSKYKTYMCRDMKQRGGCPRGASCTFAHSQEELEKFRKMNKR
Method: (§1) The EMSA was performed as described before⁴⁹ with the following modifications: RNA was prepared by 5′ end-labeling of commercially synthesized RNA oligonucleotides with [γ-³²P]-ATP using T4 polynucleotide kinase (NEB). Labeled RNA was gel purified and eluted and adjusted with H₂O to 1 pmol/μl. 50 fmol of labelled RNA was used per 20 μl reaction. Prior to binding reactions, a master mix containing labelled RNA, lx binding buffer (20 mM Tris-HCl (pH 7.5), 50 mM KCl, 5 mM MgCl₂, 20 μM ZnSO₄, 10% glycerol), 2 mM DTT, 0.05 mg/ml BSA, and 5 μg/ml heparin was heated at 90° C. for 1 min and gradually cooled down to room temperature. In parallel, a dilution series of 10× protein stocks was prepared in 1× protein dilution buffer (1× binding buffer, 5 μg/ml heparin). For each binding reaction, 2 μl of the 10× protein stock was added to 18 μl of the mastermix at room temperature for 2 h. After addition of 4 μl 6× loading buffer (30% glycerol, bromphenol blue, xylene cyanol), RNP complexes were resolved by nondenaturing PAGE (6% polyacrylamide, 0.5×TBE, 5% glycerol) in ice-cold 0.5×TBE buffer containing 20 μM ZnSO₄ at 100 V for 40 min. The protein-bound RNA and the free RNA were quantified using a phosphorimager.

[2] = biological target: T1, RC3H1-N2 (Roquin-1, RING, ROQ and CCCH …); experiment: EMSA; same buffer; similar to RC3H1-N1; details: tags: N-terminal His7 cleaved with TEV protease, E. coli Rosetta 2 (DE3), pQLinkH; label: 5'-32P; hairpin
Method: as §1

[3] = biological target: T2, RC3H1-N1 (Roquin-1, RING and ROQ domains) (Homo sapiens, UniProt Q5TC82 Q5TC82:2-399); experiment: EMSA; 20 mM Tris-HCl pH 7.5, 50 mM KCl, 5 mM MgCl2, 20 uM ZnSO4, 5 ug/ml heparin, room temperature; binding independent of CCCH zinc finger; details: tags: N-terminal His7 cleaved with TEV protease, E. coli Rosetta 2 (DE3), pQLinkH; label: 5'-32P; hairpin
T2 sequence: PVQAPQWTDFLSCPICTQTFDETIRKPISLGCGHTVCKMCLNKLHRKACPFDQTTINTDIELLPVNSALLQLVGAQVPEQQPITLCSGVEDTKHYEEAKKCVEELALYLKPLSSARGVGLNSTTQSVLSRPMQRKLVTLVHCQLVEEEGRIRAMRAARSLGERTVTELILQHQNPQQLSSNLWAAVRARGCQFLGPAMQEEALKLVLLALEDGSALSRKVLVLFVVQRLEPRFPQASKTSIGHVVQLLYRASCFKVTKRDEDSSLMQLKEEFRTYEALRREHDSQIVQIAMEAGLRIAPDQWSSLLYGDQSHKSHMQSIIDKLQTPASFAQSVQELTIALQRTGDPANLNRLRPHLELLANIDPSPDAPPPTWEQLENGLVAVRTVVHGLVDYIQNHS
Method: as §1

[4] = biological target: T1, RC3H1-N2 (Roquin-1, RING, ROQ and CCCH …); experiment: EMSA; same buffer; higher affinity than RC3H1-N1; details: tags: N-terminal His7 cleaved with TEV protease, E. coli Rosetta 2 (DE3), pQLinkH; label: 5'-32P; hairpin
Method: as §1

AUAUAUAAUAUACCCUUACAUUAUGUAUGAGGGAUUU (ssRNA) [A20 37 nt]: binds [1].

AUUUCUGUGAAAU (ssRNA) [ICOS CDE-like stem-loop 13 nt]: binds [2]; binds [3].

ACCCUUACAUUAUGUAUGAGGGA (ssRNA) [A20 23 nt hairpin]: binds [4].
